Test results published in patent publication US20140087995A1 (published 2014).
Numbered stars: 1 amine (or outer) side, 2 acyl side, 3 side chain; on linkers, the order of the positions; unused ones are H or OH. Bridge positions count the residues as written; N and C are the ends. Side chains are listed from the residue outwards. Ends that are not written are not given here. * marks the point of attachment. C20 diacid = O=C(O)CCCCCCCCCCCCCCCCCCC(=O)*; γGlu = O=C(O)[C@H](CCC(=O)[*:2])N[*:1]

Experiments:
rat calcitonin receptor [1] = target: T1, rat calcitonin receptor (rat, UniProt P32214 25-516); experiment: IC50 on rat CTR divided by IC50 on rat amylin receptor (Assays VIII/VI)
T1 construct: whole, on cells; Used as membranes prepared from BHK tk'ts 13 cells transiently transfected with the rat calcitonin receptor (Assay VIII); also called rCTR; rat calcitonin (a) receptor
T1 sequence (looked up): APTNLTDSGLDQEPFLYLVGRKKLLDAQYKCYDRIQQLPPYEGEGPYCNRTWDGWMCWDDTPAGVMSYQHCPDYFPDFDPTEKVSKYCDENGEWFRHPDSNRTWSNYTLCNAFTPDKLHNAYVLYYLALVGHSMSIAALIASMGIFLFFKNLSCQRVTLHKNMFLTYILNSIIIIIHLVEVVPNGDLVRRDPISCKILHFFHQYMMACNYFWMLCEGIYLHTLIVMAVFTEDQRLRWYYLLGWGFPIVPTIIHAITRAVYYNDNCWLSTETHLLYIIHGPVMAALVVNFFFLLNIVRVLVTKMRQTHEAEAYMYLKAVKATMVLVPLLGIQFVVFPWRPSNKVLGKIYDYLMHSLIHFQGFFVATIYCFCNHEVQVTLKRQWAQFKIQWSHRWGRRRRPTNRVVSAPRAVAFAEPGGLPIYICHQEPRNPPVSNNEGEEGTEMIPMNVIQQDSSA

[2] = target: T2, human calcitonin receptor (human, UniProt P30988 25-474); experiment: IC50 on human CTR divided by IC50 on human amylin receptor (Assays VII/V)
T2 construct: whole, on cells; Used as membranes prepared from a BHK tk'ts 13 cell line stably transfected with the human calcitonin receptor (Assay VII); also called hCTR; hCT
T2 sequence (looked up): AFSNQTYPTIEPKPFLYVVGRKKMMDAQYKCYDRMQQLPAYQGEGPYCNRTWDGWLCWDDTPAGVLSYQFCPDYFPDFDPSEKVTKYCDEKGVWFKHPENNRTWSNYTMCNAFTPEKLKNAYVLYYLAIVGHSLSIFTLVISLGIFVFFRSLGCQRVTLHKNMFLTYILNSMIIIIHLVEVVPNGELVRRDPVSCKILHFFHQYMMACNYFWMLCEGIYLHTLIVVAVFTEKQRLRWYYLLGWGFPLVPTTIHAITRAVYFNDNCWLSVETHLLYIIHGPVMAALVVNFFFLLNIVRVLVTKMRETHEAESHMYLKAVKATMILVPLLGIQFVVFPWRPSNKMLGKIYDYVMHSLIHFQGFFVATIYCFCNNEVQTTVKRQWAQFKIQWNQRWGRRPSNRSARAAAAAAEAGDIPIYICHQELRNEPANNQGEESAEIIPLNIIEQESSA
In short: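 Scintillation proximity competition binding on cell membranes at 35 ng/μL with SPA beads, in 50 mM Hepes pH 7.4, 1 mM CaCl2, 5 mM MgCl₂, 0.1% OA, 0.02% Tween20. Incubated 120 min at 25° C with shaking. IC₅₀ from one-site competition fit.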

rat calcitonin receptor [3] = target: T1, rat calcitonin receptor; experiment: SPA competition with 125I-calcitonin, membranes of BHK cells with rat CTR (Assay VIII)
[4] = target: T3, rat amylin receptor (rat calcitonin receptor + rat RAMP 3) (rat, UniProt P32214 25-516; Q9JJ73 23-147); experiment: SPA competition with 125I-rat amylin, membranes of BHK cells with rat CTR + rat RAMP3 (Assay VI)
T3 construct: whole, on cells; Used as membranes prepared from BHK tk'ts 13 cells transiently transfected with rat calcitonin receptor and rat RAMP 3 (Assay VI); also called rAmylin-R; rat amylin 3(a) receptor
T3 sequence (looked up) 1: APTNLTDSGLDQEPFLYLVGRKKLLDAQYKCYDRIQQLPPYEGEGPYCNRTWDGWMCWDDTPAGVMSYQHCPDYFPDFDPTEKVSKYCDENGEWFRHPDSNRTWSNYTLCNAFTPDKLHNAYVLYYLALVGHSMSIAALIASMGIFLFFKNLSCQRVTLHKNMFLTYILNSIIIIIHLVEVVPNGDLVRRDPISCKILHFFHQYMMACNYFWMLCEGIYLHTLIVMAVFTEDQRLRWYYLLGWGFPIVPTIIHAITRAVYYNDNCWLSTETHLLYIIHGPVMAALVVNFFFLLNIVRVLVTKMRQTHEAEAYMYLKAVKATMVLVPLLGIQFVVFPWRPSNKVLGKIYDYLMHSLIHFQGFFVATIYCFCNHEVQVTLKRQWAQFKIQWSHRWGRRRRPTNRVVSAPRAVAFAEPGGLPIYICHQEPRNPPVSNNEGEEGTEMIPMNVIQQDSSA
T3 sequence (looked up) 2: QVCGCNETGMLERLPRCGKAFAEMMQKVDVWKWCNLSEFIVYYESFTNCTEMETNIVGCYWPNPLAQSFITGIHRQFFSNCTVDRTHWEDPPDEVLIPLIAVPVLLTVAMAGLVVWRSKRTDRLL

Ratio rCT/rAmylin binding (rat calcitonin receptor [1]): 201
Ratio hCT/hAmylin binding [2]: 69.7
IC50 (rat calcitonin receptor [3]): 112 nM
IC50 [4]: 0.558 nM
B1: N^ε1-[(4S)-4-carboxy-4-(19-carboxynonadecanoylamino)butanoyl]-[Arg17,Pro21,Pro27]-h-amylin (peptide)
peptide: K([γGlu-C20 diacid])CNTATCATQRLANFLRHSSPNFGAIPSSTNVGSNTY-NH2
modifications: disulfide 2-7; N-terminus assumed
SMILES: CC[C@H](C)[C@H](NC(=O)[C@H](C)NC(=O)CNC(=O)[C@H](Cc1ccccc1)NC(=O)[C@H](CC(N)=O)NC(=O)[C@@H]1CCCN1C(=O)[C@H](CO)NC(=O)[C@H](CO)NC(=O)[C@H](Cc1c[nH]cn1)NC(=O)[C@H](CCCNC(=N)N)NC(=O)[C@H](CC(C)C)NC(=O)[C@H](Cc1ccccc1)NC(=O)[C@H](CC(N)=O)NC(=O)[C@H](C)NC(=O)[C@H](CC(C)C)NC(=O)[C@H](CCCNC(=N)N)NC(=O)[C@H](CCC(N)=O)NC(=O)[C@@H](NC(=O)[C@H](C)NC(=O)[C@@H]1CSSC[C@H](NC(=O)[C@@H](N)CCCCNC(=O)CC[C@H](NC(=O)CCCCCCCCCCCCCCCCCCC(=O)O)C(=O)O)C(=O)N[C@@H](CC(N)=O)C(=O)N[C@@H]([C@@H](C)O)C(=O)N[C@@H](C)C(=O)N[C@@H]([C@@H](C)O)C(=O)N1)[C@@H](C)O)C(=O)N1CCC[C@H]1C(=O)N[C@@H](CO)C(=O)N[C@@H](CO)C(=O)N[C@H](C(=O)N[C@@H](CC(N)=O)C(=O)N[C@H](C(=O)NCC(=O)N[C@@H](CO)C(=O)N[C@@H](CC(N)=O)C(=O)N[C@H](C(=O)N[C@@H](Cc1ccc(O)cc1)C(N)=O)[C@@H](C)O)C(C)C)[C@@H](C)O
notes: Analogue of human amylin; also called compound 48
